Experimental findings from patent publication US20240100176A1 (Eli Lilly, published 2024) are described below.

The target in experiment [1] is T1, human IL-4Rα on cells (human PBMC B cells and CD4+ T cells, Daudi cells, HEK-Blue IL-4/IL-13 cells, myeloid … (human, UniProt P24394 26-825)).
T1 sequence: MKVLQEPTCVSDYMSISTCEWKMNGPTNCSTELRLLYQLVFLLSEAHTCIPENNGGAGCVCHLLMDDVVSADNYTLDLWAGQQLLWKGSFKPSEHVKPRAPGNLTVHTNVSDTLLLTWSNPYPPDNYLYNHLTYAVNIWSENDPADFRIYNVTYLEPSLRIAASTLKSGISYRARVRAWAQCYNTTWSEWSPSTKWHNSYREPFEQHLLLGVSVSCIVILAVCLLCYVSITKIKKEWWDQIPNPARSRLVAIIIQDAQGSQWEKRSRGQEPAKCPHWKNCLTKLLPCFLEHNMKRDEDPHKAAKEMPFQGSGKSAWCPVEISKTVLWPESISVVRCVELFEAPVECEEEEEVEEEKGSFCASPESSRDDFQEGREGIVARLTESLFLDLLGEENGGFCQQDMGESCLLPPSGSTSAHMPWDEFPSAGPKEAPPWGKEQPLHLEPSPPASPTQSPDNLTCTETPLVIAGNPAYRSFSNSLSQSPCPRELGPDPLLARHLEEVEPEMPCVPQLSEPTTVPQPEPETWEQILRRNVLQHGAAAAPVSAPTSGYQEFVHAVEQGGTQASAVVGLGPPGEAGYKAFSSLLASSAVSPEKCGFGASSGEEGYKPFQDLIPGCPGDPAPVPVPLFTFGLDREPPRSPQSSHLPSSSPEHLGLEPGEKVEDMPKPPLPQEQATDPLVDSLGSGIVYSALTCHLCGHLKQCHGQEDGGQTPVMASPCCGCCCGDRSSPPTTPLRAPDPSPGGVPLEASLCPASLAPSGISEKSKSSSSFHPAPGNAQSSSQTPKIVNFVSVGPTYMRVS
Description: cell-based or functional assay.

Experiment [2] deals with T1, human IL-4Rα on cells (human PBMC B …). Description: cell-based or functional assay. The source holds these as a separate data set.
For experiment [3] the target is unchanged. Description: cell-based or functional assay. This is another data set of the same source.
The target of experiment [4] is T2, hexahistidine-tagged human IL-4Rα extracellular domain (human, UniProt P24394 26-232).
T2 construct: In the MSD assay the plate coat is the His-tagged ECD; also called human IL-4Rα ECD; Wild type receptor; not shown: hexahistidine tag
T2 sequence: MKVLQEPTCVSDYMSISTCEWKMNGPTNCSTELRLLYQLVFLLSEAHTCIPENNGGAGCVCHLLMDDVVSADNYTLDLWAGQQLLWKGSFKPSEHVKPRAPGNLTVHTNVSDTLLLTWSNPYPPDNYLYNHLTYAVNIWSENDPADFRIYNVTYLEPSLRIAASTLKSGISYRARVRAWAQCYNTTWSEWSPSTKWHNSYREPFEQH
Description: competition MSD ELISA (solution equilibrium, 37 °C), apparent KD, mean of 3 experiments. Here is the method:
Example 3a. […] A 96-well multi-array plate (Meso Scale Diagnostics, Cat. #L15XA-3) was coated at 4° C. overnight with 0.5 μg/mL hexahistidine-tagged human or cynomolgus monkey IL-4Rα ECD in phosphate buffered saline (PBS). Following coating, plates were washed 10 times with 200 μL PBST (PBS with 0.05% Tween® 20) and blocked with 300 μL/well of PBS casein blocking buffer (Pierce, Cat. #37528) at 37° C. for 1 hour. Plates were then washed 10 times as above, and 50 μL of the preincubated antibody:IL-4Rα dilution series was transferred to the wells and incubated at 37° C. with 300 rpm shaking for […]. Plates were washed 10 times with PBST, 50 μL of 1 μg/mL anti-human antibody sulfo-tag 20 (Meso Scale Diagnostics, Cat. #R32AJ-1) was added to the plates for the assay of Table 7a, and anti-Human NHP Kappa Light chain SULFO-TAG 20 (Meso Scale Diagnostics, Cat #D20TF-6) was added to the plates for the assay of Table 7b, and plates were incubated at 37° C. with 300 rpm shaking for 30 minutes. Plates were washed 10 times with PBST, 150 μL/well of 1× Read Buffer T was added to the wells and analyzed on a SECTOR® Imager 6000 (Meso Scale Diagnostics) 15 min after buffer addition. The apparent KD is determined by fitting a sigmoidal curve to the electrochemiluminescence (ECL) response vs. log (soluble IL-4Rα concentration) using GraphPad Prism 9. Data is graphed with normalized ECL values.

In experiment [5] the target is T1, human IL-4Rα on cells (human PBMC B …). Put plainly: flow cytometry on human PBMCs, CD4-positive T cells, Alexa Fluor 647 labelled antibody, percent IL-4Rα positive cells. The method, then: Example 3b. Binding to B cells and T cells: Binding of the exemplified anti-human IL-4Rα antibodies to B cells and T cells was tested in a Fluorescence Activated Cell Sorting (FACS) assay. […] Freshly isolated cells PBMCs were resuspended at 2×10⁶ cells/mL and allowed to rest for 15 minutes at room temperature, then plated at 100 μL/well into a round bottom 96-well plate (COSTAR®) and washed with FACS buffer (PBS containing 2% fetal bovine serum from Corning®). Exemplified anti-human IL-4Rα antibodies and the respective control IgG antibodies conjugated to Alexa Fluor® 647 according to manufacturer's protocol (Thermo Fisher Scientific) were added to the wells at 66.67 nM and diluted 4-fold in duplicate. Equivalent volume of 2× antibody cocktail containing: Human TruStain FcX™. FITC anti-human CD3 Antibody, Alexa Fluor® 700 anti-human CD4 Antibody (all from Biolegend®) and CD20 Monoclonal Antibody (2H7), PerCP-Cyanine5.5 (Thermo Fisher Scientific) was then added to the wells. Cells were incubated at 4° C. for 30 minutes, washed twice with FACS buffer and resuspended in a final volume of 100 μL FACS buffer. Viability dye, Sytox™ blue (Thermo Fisher Scientific), was added and the samples were analyzed via a flow cytometer (LSRFortessa™ X-20; BD BIOSCIENCES). Data analysis was performed using FlowJo software and statistical analysis was performed using GraphPad Prism 9. […]

B1: anti-human IL-4Rα antibody Ab1 (antibody, human IgG4 S228P, kappa)
heavy: QVQLVESGGGLVQPGGSLRLSCVASGFTFSHSSMNWVRQAPGKGLEWVSYISRATGAVYYADSVKGRFTISRDNAKNSLYLQMNSLRDEDTAVYYCAREPVFDYWGQGTLVTVSSASTKGPCVFPLAPCSRSTSESTAALGCLVKDYFPEPVTVSWNSGALTSGVHTFPAVLQSSGLYSLSSVVTVPSSSLGTKTYTCNVDHKPSNTKVDKRVESKYGPPCPPCPAPEFLGGPSVFLFPPKPKDTLMISRTPEVTCVVVDVSQEDPEVKFNWYVDGVEVHNAKTKPREEQFNSTYRVVSVLTVLHQDWLNGKEYKCKVSNKGLPSSIEKTISKAKGQPREPQVYTLPPSREEMTKNQVSLTCLVKGFYPSDICVEWESNGQPENNYKTTPPVLDSDGSFFLYSRLTVDKSRWQQGNVFSCSVMHEALHNHYTQKSLSLSLG
light: DIQMTQSPSAMSASVGDRVTITCRASQDISNYLAWFQQKPGKVPTRLIYAASSLQSGVPSRFSGSGSGTEFTLTISSLQPEDFATYYCLQWSSYPRTFGQGTKVEIKRTVAAPSVFIFPPSDEQLKSGTASVVCLLNNFYPREAKVQWKVDNALQSGNSQESVTEQDSKDSTYSLSSTLTLSKADYEKHKVYACEVTHQGLSSPVTKSFNRGEC
notes: human kappa light chain; also called anti-human IL-4Rα Ab1; unconjugated Ab1
As a reminder, the EC50 is the concentration at which the effect is half-maximal. Higher therefore signals a need for much substance. Turning to B1, in experiment [1], the “Inhibition of IL-4 induced STAT6 phosphorylation, B cells, IC50” value stood at 0.019 µg/mL and the “Inhibition of IL-4 induced STAT6 phosphorylation, CD4+ T cells, IC50” value is 0.017 µg/mL. Moreover, the “Inhibition of IL-13 induced STAT6 phosphorylation in B cells, IC50” value in experiment [2] stood at 0.03 µg/mL. Moreover, the “Inhibition of IL-4 induced CD23 Expression on myeloid cells, IC50” value in experiment [3] is 8.27 nM. Also, the Kd in experiment [4] was found to be 0.0312 nM. This molecule displayed an EC50 in experiment [5] of 26.3 nM.

B2: anti-human IL-4Rα Ab1 GC conjugate of Example 1b (n=4) (antibody, human IgG4 S228P, kappa)
heavy: B1 heavy
light: B1 light
modifications: glucocorticoid receptor agonist payload-linker (GC-L, Preparation 8) conjugated to the engineered cysteines at the 124 and 378 position of the heavy chain (EU numbering); n is 4 (average DAR 4.17 by RP-HPLC, 3.85 by TOF MS)
Take B2: in experiment [1], the “Inhibition of IL-4 induced STAT6 phosphorylation, B cells, IC50” value was found to be 0.046 µg/mL and the “Inhibition of IL-4 induced STAT6 phosphorylation, CD4+ T cells, IC50” value is 0.041 µg/mL. The “Inhibition of IL-13 induced STAT6 phosphorylation in B cells, IC50” value in experiment [2] is 0.064 µg/mL. Also, the “Inhibition of IL-4 induced CD23 Expression on myeloid cells, IC50” value in experiment [3] stood at 10.8 nM. For the same molecule, the Kd in experiment [4] was determined as 0.0247 nM.
